Test results taken from patent publication US20160015831A1 (BIOALLIANCE C V, published 2016).

Columns and labels:
[1] = target: T1, human CD22 (human, UniProt P20273 20-847); assay: flow cytometry, Daudi cells, unconjugated Ab 3.3 µg/mL
T1 construct: Endogenous CD22 on human cell lines Daudi, Raji, Ramos, RL, REH and NALM-6; no signal peptide limits are stated; also called antigen CD22
Description: (§1) 6×10⁴˜1×10⁵ cells were seeded per well in a v-bottomed 96-well plate and incubated with 100 μl of the unconjugated Abs or the ADCs at titrated concentrations or isotype control antibody human IgG at 10 μg/mL. After 30-60 minutes of incubation at 4° C., cells were washed once with 200 μl FACS buffer (lx PBS containing 1% FBS), stained with 100 μl of 1 μg/ml goat F(ab′)2-anti-human IgG (H+L)-RPE (Southern Biotech, Cat. No. 2043-09) in FACS buffer and then incubated at 4° C. for 30˜60 min Cells were washed once with FACS buffer and analyzed by flow cytometer (BD LSR, BD Life Sciences).
(§2) The binding ability of hLL2-Cys variants with or without drug conjugation was evaluated in Daudi and REH cancer cells.

[2] = target: T1, human CD22; assay: cell-based or functional assay
[3] = target: T1, human CD22; assay: flow cytometry, Daudi cells, Tap18Hr1 conjugate 3.3 µg/mL
Description: as §1, §2

| Binder | MFI [1] | % inhibition, WST-1 cytotoxicity, Daudi cells, 1.1 µg/mL [2] | % inhibition, WST-1 cytotoxicity, Daudi cells, 3.3 µg/mL [2] | % inhibition, WST-1 cytotoxicity, Ramos cells, 1.1 µg/mL [2] | % inhibition, WST-1 cytotoxicity, Ramos cells, 3.3 µg/mL [2] | MFI [3] |
| --- | --- | --- | --- | --- | --- | --- |
| hLL2-S157C-IgG1 (antibody, Position is EU numbering) heavy: not shown light: DIQLTQSPSSLSASVGDRVTMSCKSSQSVLYSANHKNYLAWYQQKPGKAPKLLIYWASTRESGVPSRFSGSGSGTDFTFTISSLQPEDIATYYCHQYLSSWTFGGGTKLEIKRTVAAPSVFIFPPSDEQLKSGTASVVCLLNNFYPREAKVQWKVDNALQSGNSQESVTEQDSKDSTYSLSSTLTLSKADYEKHKVYACEVTHQGLSSPVTKSFNRGEC | 1300 | – | – | – | – | – |
| hLL2-S165C-IgG1 (antibody, Position is EU numbering) heavy: not shown light: DIQLTQSPSSLSASVGDRVTMSCKSSQSVLYSANHKNYLAWYQQKPGKAPKLLIYWASTRESGVPSRFSGSGSGTDFTFTISSLQPEDIATYYCHQYLSSWTFGGGTKLEIKRTVAAPSVFIFPPSDEQLKSGTASVVCLLNNFYPREAKVQWKVDNALQSGNSQESVTEQDSKDSTYSLSSTLTLSKADYEKHKVYACEVTHQGLSSPVTKSFNRGEC | 1310 | – | – | – | – | – |
| hLL2-S165C-IgG1-Tap18Hr1 (antibody, Tap18Hr1 linker-drug (monomethyl dolastatin 10) on the introduced Cys 165 (EU numbering); site-specific conjugation, DAR 1.58-2.01, also called hLL2-S165C-IgG1 Tap18Hr1 conjugate) heavy: not shown light: DIQLTQSPSSLSASVGDRVTMSCKSSQSVLYSANHKNYLAWYQQKPGKAPKLLIYWASTRESGVPSRFSGSGSGTDFTFTISSLQPEDIATYYCHQYLSSWTFGGGTKLEIKRTVAAPSVFIFPPSDEQLKSGTASVVCLLNNFYPREAKVQWKVDNALQSGNSQESVTEQDSKDSTYSLSSTLTLSKADYEKHKVYACEVTHQGLSSPVTKSFNRGEC | – | 60.5% | 65.1% | 72.6% | 79.4% | 1230 |
| hLL2-S442C-IgG1 (antibody, Position is EU numbering) heavy: not shown light: DIQLTQSPSSLSASVGDRVTMSCKSSQSVLYSANHKNYLAWYQQKPGKAPKLLIYWASTRESGVPSRFSGSGSGTDFTFTISSLQPEDIATYYCHQYLSSWTFGGGTKLEIKRTVAAPSVFIFPPSDEQLKSGTASVVCLLNNFYPREAKVQWKVDNALQSGNSQESVTEQDSKDSTYSLSSTLTLSKADYEKHKVYACEVTHQGLSSPVTKSFNRGEC | 1150 | – | – | – | – | – |
| hLL2-T155C-IgG1 (antibody, Position is EU numbering) heavy: not shown light: DIQLTQSPSSLSASVGDRVTMSCKSSQSVLYSANHKNYLAWYQQKPGKAPKLLIYWASTRESGVPSRFSGSGSGTDFTFTISSLQPEDIATYYCHQYLSSWTFGGGTKLEIKRTVAAPSVFIFPPSDEQLKSGTASVVCLLNNFYPREAKVQWKVDNALQSGNSQESVTEQDSKDSTYSLSSTLTLSKADYEKHKVYACEVTHQGLSSPVTKSFNRGEC | 1250 | – | – | – | – | – |
| hLL2-T155C-IgG1-Tap18Hr1 (antibody, Tap18Hr1 linker-drug (monomethyl dolastatin 10) on the introduced Cys 155 (EU numbering); site-specific conjugation, DAR 1.58-2.01, also called hLL2-T155C-IgG1 Tap18Hr1 conjugate) heavy: not shown light: DIQLTQSPSSLSASVGDRVTMSCKSSQSVLYSANHKNYLAWYQQKPGKAPKLLIYWASTRESGVPSRFSGSGSGTDFTFTISSLQPEDIATYYCHQYLSSWTFGGGTKLEIKRTVAAPSVFIFPPSDEQLKSGTASVVCLLNNFYPREAKVQWKVDNALQSGNSQESVTEQDSKDSTYSLSSTLTLSKADYEKHKVYACEVTHQGLSSPVTKSFNRGEC | – | 71% | 72.6% | 84.9% | 88.9% | 1230 |
| hLL2-T169C-IgG1 (antibody, Position is EU numbering) heavy: not shown light: DIQLTQSPSSLSASVGDRVTMSCKSSQSVLYSANHKNYLAWYQQKPGKAPKLLIYWASTRESGVPSRFSGSGSGTDFTFTISSLQPEDIATYYCHQYLSSWTFGGGTKLEIKRTVAAPSVFIFPPSDEQLKSGTASVVCLLNNFYPREAKVQWKVDNALQSGNSQESVTEQDSKDSTYSLSSTLTLSKADYEKHKVYACEVTHQGLSSPVTKSFNRGEC | 1300 | – | – | – | – | – |
| hLL2-T169C-IgG1-Tap18Hr1 (antibody, Tap18Hr1 linker-drug (monomethyl dolastatin 10) on the introduced Cys 169 (EU numbering); site-specific conjugation, DAR 1.58-2.01, also called hLL2-T169C-IgG1 Tap18Hr1 conjugate) heavy: not shown light: DIQLTQSPSSLSASVGDRVTMSCKSSQSVLYSANHKNYLAWYQQKPGKAPKLLIYWASTRESGVPSRFSGSGSGTDFTFTISSLQPEDIATYYCHQYLSSWTFGGGTKLEIKRTVAAPSVFIFPPSDEQLKSGTASVVCLLNNFYPREAKVQWKVDNALQSGNSQESVTEQDSKDSTYSLSSTLTLSKADYEKHKVYACEVTHQGLSSPVTKSFNRGEC | – | 69.8% | 73.6% | 85.7% | 91.4% | 1370 |
